{
  "source": "paper PMC6522730",
  "about": "“NUDIX hydrolases with inorganic polyphosphate exo- and endopolyphosphatase activities in the glycosome, cytosol and nucleus of Trypanosoma brucei” (Bioscience Reports, 2019)",
  "proteins": {"B1": {"name": "TbNH2 (Trypanosoma brucei brucei TREU927) (protein)", "chain": "MYRKNVCVVIFNEDLNFLACQRIHEDKFQFVQGGVEEGDADIIRAAYREVHEEVGLFPEDLRLIGEIMPPSGDPHEFRYILHEGANLRHFGYVGQQQRLFLFYTPSSTIQRVRLVPPKGSVAKQEFSHVEWLPIDEIIERCPKEKQHIFVAVSKVAIPMAKAFLKTRSSI", "notes": "full-length ORF in pET32 Ek/LIC (N-terminal thioredoxin/His tag), E. coli BL21-CodonPlus (DE3), nickel column"}},
  "key": {"[1]": {"substrate": "Nc1ncnc2c1ncn2[C@@H]1O[C@H](COP(=O)(O)OP(=O)(O)OP(=O)(O)O)[C@@H](O)[C@H]1O", "assay": "Pi release, malachite green assay", "assay_type": "biochemical, Trypanosoma brucei", "conditions": "pH 8.0, 37°C, 6 mM MgCl2, 50 mM NaCl, 40 mM Hepes, 10 min", "description": "(§1) Pi release, malachite green assay on TbNH2"}, "[2]": {"substrate": "Nc1ncnc2c1ncn2[C@@H]1O[C@H](COP(=O)(O)OP(=O)(O)O)[C@@H](O)[C@H]1O", "assay": "Pi release, malachite green assay", "assay_type": "biochemical, Trypanosoma brucei", "conditions": "pH 8.0, 37°C, 6 mM MgCl2, 50 mM NaCl, 40 mM Hepes, 10 min", "description": "as §1"}},
  "data": [
    {"protein": "B1", "values": [
      {"measurement": "Km", "setting": "[1]", "result": "78.1 ± 16.3", "unit": "µM"},
      {"measurement": "Vmax", "setting": "[1]", "result": 0.0102, "unit": "µmol/min/mg"},
      {"measurement": "kcat/Km", "setting": "[1]", "result": 290000, "unit": "M⁻¹ s⁻¹"},
      {"measurement": "Km", "setting": "[2]", "result": "46.5 ± 6.3", "unit": "µM"},
      {"measurement": "Vmax", "setting": "[2]", "result": 0.0056, "unit": "µmol/min/mg"},
      {"measurement": "kcat/Km", "setting": "[2]", "result": 270000, "unit": "M⁻¹ s⁻¹"}
    ]}
  ]
}
